For test [1], the target named is T1, SARS-CoV-2 prefusion S ectodomain (BEI NR52394) (SARS-CoV-2 Wuhan-Hu-1, UniProt P0DTC2, stabilised). The experiment in a line: cell-based or functional assay.
Test [2] concerns the target T1, SARS-CoV-2 prefusion S ectodomain (BEI …). The experiment in a line: BLI. (In general: BLI is a label-free optical method that tracks binding on a fibre tip over time.)
Test [3] has the same target. Kind of test: cryo-EM structure.

B1: mAb 298 IgG (antibody, V domains shown)
VH: QVQLVQSGAEVKKPGASVKVSCKASGGTFSTYGISWVRQAPGQGLEWMGWISPNSGGTDLAQKFQGRVTMTRDTSTSTVYMELSSLRSEDTAVYYCASDPRDDIAGGYWGQGTLVTVSS
VL: not shown
As for B1, the “IC50 of neutralization of SARS-CoV-2 pseudovirus (PsV)” value in test [1] is roughly 30 µg/mL.

B2: mAb 236 IgG (antibody, V domains shown)
VH: QVQLVQSGAEVKKPGASVKVSCKASGGTFTSYGINWVRQAPGQGLEWMGWMNPNSGNTGYAQKFQGRVTMTRDTSTSTVYMELSSLRSEDTAVYYCASRGIQLLPRGMDVWGQGTTVTVSS
VL: not shown
In the case of B2, the binding result in test [2] is recorded as “binds”.

B3: mAb 324 IgG (antibody, V domains shown)
VH: QVQLVQSGAEVKKPGASVKVSCKASGGTFNNYGISWVRQAPGQGLEWMGWMNPNSGNTGYAQKFQGRVTMTRDTSTSTVYMELSSLRSEDTAVYYCARVGDYGDYIVSPFDLWGRGTLVTVSS
VL: DIQMTQSPSSLSASVGDRVTITCRASQSITTYLNWYQQKPGKAPKLLIYDASNLETGVPSRFSGSGSGTDFTLTISSLQPEDFATYYCQQSYSTPPTFGQGTKVEIK
Consider B3, for which the binding result in test [2] was “binds”.

B4: Fab 324 (Fab, V domains shown)
VH: B3 VH
VL: B3 VL
With B4, the binding result in test [3] is reported as “binds”.

B5: 324 Multabody (other)
VH: B3 VH
VL: B3 VL
With B5, in test [2], the binding result was “binds”.

B6: mAb 52 IgG (antibody, V domains shown)
VH: QVQLVQSGAEVKKPGSSVKVSCKASGYTFTSYGISWVRQAPGQGLEWMGGIIPMFGTTNYAQKFQGRVTITADKSTSTAYMELSSLRSEDTAVYYCARDRGDTIDYWGQGTLVTVSS
VL: DIQMTQSPSSLSASVGDRVTITCRASQGISNNLNWYQQKPGKAPKLLIYAASSLESGVPSRFSGSGSGTDFTLTISSLQPEDFATYYCQQGNGFPLTFGPGTKVDIK
In the case of B6, the binding result in test [2] is recorded as “binds”.

B7: 52 Multabody (other)
VH: B6 VH
VL: B6 VL
For the molecule B7, the binding result in test [2] is given as “binds”.

(Values after publication doi:10.1101/2020.10.15.341636 (bioRxiv, 2020).)
